B1: CHMP4C (parent)
chain: TNIRLPNVPSSSLPAQPNRKPGMS

Variants of: B1
Assay: protein stability index of a GFP-peptide fusion (GPS, HEK-293T) (PSI 1-6); higher = more stable
Conditions: c terminus: a fixed tail appended
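Note: lentivirally expressed fusions sorted by FACS into six bins by GFP to DsRed ratio, PSI derived from sequencing read proportions per bin multiplied by bin number.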

Protein stability index, by site and new letter:
S12: V 4.8, F 4.29, R 4.51, P 4.34, Y 4.12, Q 4.66, H 4.35, G 4.27
R4: D 4.34, S 4.29, Q 4.19, H 4.06, A 4.79, T 4.61, N 2.96, C 4.77
N18: T 4.89, E 4.41, Y 4.36, F 4.33, K 4.62, I 4.3, Q 4.87, M 4.66
P21: A 5, T 4.47, G 4.31, Q 4.96, F 4.32, H 4.45, R 4.94, L 4.29
S10: V 4.2, I 4.6, Q 4.73, F 4.05, C 4.83, R 4.06, G 4.75, L 4.09, W 4.46, E 4.51
P9: D 4.77, R 4.45, S 4.68, Y 3.62, G 4.52, E 4.94, T 4.55, L 3.85, N 4.89, C 4.33, H 4.49
N2: Q 4.27, Y 3.51, D 4.77, V 4.16, G 4.24, P 5.25, W 3.01
S24: L 4.15, I 4.27, F 4.21, V 4.86, P 4.81
M23: F 4.42, H 4.92, N 5.13, S 5.17, T 5.17, C 4.84, P 4.28, D 5.58, R 4.04
L5: W 4.31, P 4.88, H 4.62, K 4.71, V 4.7, D 5.05, E 4.46
Q16: P 4.94, N 4.73, L 4.32, C 4.39, Y 3.99, K 4.03
A15: T 4.55, Y 4.26, F 4.21, R 4.71, D 4.75
R19: M 4.37, A 4.61, W 3.6, H 4.33, D 4.66
P6: F 3.28, N 4.18, I 2.71, S 4.44, M 3.36, L 2.99, T 3.75, C 3.56, H 3.02
S11: L 4.01, W 3.97, A 4.87, I 4.68, C 4.86
N7: T 4.95, R 4.41, H 4.62, G 4.76, D 4.49, E 4.26
P14: N 4.41, V 4.93, D 4.5, K 4.39, A 4.14, S 4.69, C 3.94, L 4.19, G 4.67, H 4.37
K20: G 4.39, H 4.4, P 3.77, C 4.3, D 4.44, S 4.56
T1: F 3.6, W 3.62, H 4.56, C 4.14, Y 3.71, M 4.17
G22: R 4.92, F 4.2, W 3.75, I 4.39, K 4.64
L13: Q 4.09, E 4.25, V 4.88, S 4.76
V8: P 5.05, S 4.49, M 4.61, R 4.42, Q 4.43, G 4.47
P17: V 4.67, S 4.21, H 4.26, Q 3.82, D 4.35, K 4.61, F 4.24
I3: Q 4.87, S 4.71, M 4.76, K 3.99, A 4.73, Y 4.33

— the supplement of paper PMC10567573
